Paper PMC8593620

B1: RNF128 Iso1 (GRAIL): N48A (protein)
parent chain: MGPPPGAGVSCRGGCGFSRLLAWCFLLALSPQAPGSRGAEAVWTAYLNVSWRVPHTGVNRTVWELSEEGVYGQDSPLEPVAGVLVPPDGPGALNACNPHTNFTVPTVWGSTVQVSWLALIQRGGGCTFADKIHLAYERGASGAVIFNFPGTRNEVIPMSHPGAVDIVAIMIGNLKGTKILQSIQRGIQVTMVIEVGKKHGPWVNHYSIFFVSVSFFIITAATVGYFIFYSARRLRNARAQSRKQRQLKADAKKAIGRLQLRTLKQGDKEIGPDGDSCAVCIELYKPNDLVRILTCNHIFHKTCVDPWLLEHRTCPMCKCDILKALGIEVDVEDGSVSLQVPVSNEISNSASSHEEDNRSETASSGYASVQGTDEPPLEEHVQSTNESLQLVNHEANSVAVDVIPHVDNPTFEEDETPNQETAVREIKS
B2: RNF128 Iso1 (GRAIL): 3NA (protein)
parent chain: MGPPPGAGVSCRGGCGFSRLLAWCFLLALSPQAPGSRGAEAVWTAYLNVSWRVPHTGVNRTVWELSEEGVYGQDSPLEPVAGVLVPPDGPGALNACNPHTNFTVPTVWGSTVQVSWLALIQRGGGCTFADKIHLAYERGASGAVIFNFPGTRNEVIPMSHPGAVDIVAIMIGNLKGTKILQSIQRGIQVTMVIEVGKKHGPWVNHYSIFFVSVSFFIITAATVGYFIFYSARRLRNARAQSRKQRQLKADAKKAIGRLQLRTLKQGDKEIGPDGDSCAVCIELYKPNDLVRILTCNHIFHKTCVDPWLLEHRTCPMCKCDILKALGIEVDVEDGSVSLQVPVSNEISNSASSHEEDNRSETASSGYASVQGTDEPPLEEHVQSTNESLQLVNHEANSVAVDVIPHVDNPTFEEDETPNQETAVREIKS
B3: RNF128 Iso1 (GRAIL): N101A (protein)
parent chain: MGPPPGAGVSCRGGCGFSRLLAWCFLLALSPQAPGSRGAEAVWTAYLNVSWRVPHTGVNRTVWELSEEGVYGQDSPLEPVAGVLVPPDGPGALNACNPHTNFTVPTVWGSTVQVSWLALIQRGGGCTFADKIHLAYERGASGAVIFNFPGTRNEVIPMSHPGAVDIVAIMIGNLKGTKILQSIQRGIQVTMVIEVGKKHGPWVNHYSIFFVSVSFFIITAATVGYFIFYSARRLRNARAQSRKQRQLKADAKKAIGRLQLRTLKQGDKEIGPDGDSCAVCIELYKPNDLVRILTCNHIFHKTCVDPWLLEHRTCPMCKCDILKALGIEVDVEDGSVSLQVPVSNEISNSASSHEEDNRSETASSGYASVQGTDEPPLEEHVQSTNESLQLVNHEANSVAVDVIPHVDNPTFEEDETPNQETAVREIKS
B4: RNF128 Iso1 (GRAIL): N59A (protein)
parent chain: MGPPPGAGVSCRGGCGFSRLLAWCFLLALSPQAPGSRGAEAVWTAYLNVSWRVPHTGVNRTVWELSEEGVYGQDSPLEPVAGVLVPPDGPGALNACNPHTNFTVPTVWGSTVQVSWLALIQRGGGCTFADKIHLAYERGASGAVIFNFPGTRNEVIPMSHPGAVDIVAIMIGNLKGTKILQSIQRGIQVTMVIEVGKKHGPWVNHYSIFFVSVSFFIITAATVGYFIFYSARRLRNARAQSRKQRQLKADAKKAIGRLQLRTLKQGDKEIGPDGDSCAVCIELYKPNDLVRILTCNHIFHKTCVDPWLLEHRTCPMCKCDILKALGIEVDVEDGSVSLQVPVSNEISNSASSHEEDNRSETASSGYASVQGTDEPPLEEHVQSTNESLQLVNHEANSVAVDVIPHVDNPTFEEDETPNQETAVREIKS

Assay: immunoblot of steady-state levels, CpA cells
Conditions: glycan lost; control: wild-type Iso1

expression_or_secretion, decreases:
B1
B2
B3
B4
